We go through six molecules from patent US20120004117A1 (FORERUNNER PHARMA RESEARCH, published 2012).

In test [1] the target is T1, N-terminally HA-tagged mouse TM4SF20 expressed on CHO DG44 cells (mTM4SF20_CHO) (mouse, UniProt Q9CQY8 2-226).
T1 construct: also called mTM4SF20_ntHA; pCOS2_mTM4SF20_ntHA product
T1 chain: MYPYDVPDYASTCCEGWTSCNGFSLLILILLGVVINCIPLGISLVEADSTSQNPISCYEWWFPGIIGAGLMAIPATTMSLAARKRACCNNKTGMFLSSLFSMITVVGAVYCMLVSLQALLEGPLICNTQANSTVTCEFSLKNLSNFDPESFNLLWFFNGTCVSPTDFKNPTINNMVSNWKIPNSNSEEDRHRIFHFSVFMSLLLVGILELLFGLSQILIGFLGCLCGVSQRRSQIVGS
The test is described as follows: flow cytometry, hybridoma culture supernatant on mTM4SF20_CHO cells. The method, then:
(§1) Next, 5×10⁴ cells suspended in FACS buffer were dispensed to a U-bottom 96-well plate. The anti-TM4SF20 antibody (hybridoma culture supernatant) or the HAT medium as a negative control was added thereto at a concentration of 10 μg/mL. After reaction on ice for 1 hour, the cells were washed with FACS buffer. Next, an FITC-labeled anti-mouse antibody (Goat F(ab′)₂ Fragment Anti-mouse IgG (H+L)-FITC, Beckman Coulter, Inc.) was added thereto as a secondary antibody and reacted on ice for 1 hour. The cells were washed with FACS buffer, then suspended in FACS buffer supplemented with 10 μg/mL propidium iodide (PI, Sigma-Aldrich Corp.), and assayed using a flow cytometer. The assay data was analyzed as to PI-negative cell populations using CELLQuest software. As a result, all the clones bound to TM4SF20_CHO but to neither […] nor DG44 cells (FIG. 4).

The target in another test is T2, GST_TM4SF20_C3 (human).
T2 construct: Tested as whole E. coli lysate, denatured, in western blotting; not shown: glutathione S-transferase (GST) tag encoded by the vector pGEX-6P-1 (GE Healthcare), upstream of the BamHI site
T2 chain: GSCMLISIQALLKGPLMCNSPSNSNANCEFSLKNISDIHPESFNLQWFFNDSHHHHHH
The test is described as follows: western blotting of E. coli whole cell lysate, purified antibody. On the procedure: (§2) Each construct was expressed using BL21 (DE3) Competent Cells (Takara Bio Inc.). The whole cell lysate was electrophoresed by SDS-PAGE and then transferred to a PVDF membrane (Immobilon-P, Millipore Corp.) for western blotting. The construct was detected using the anti-TM4SF20 antibody (purified antibody) at a concentration of 5 μg/mL, a 3000 fold-diluted secondary antibody (HRP-anti mIgG, GE Healthcare Bio-Sciences Corp.), and ECL Western Blotting Detection Reagents (GE Healthcare Bio-Sciences Corp). The expression of each construct was confirmed using an anti-GST antibody (GE Healthcare Bio-Sciences Corp.) and an anti-His antibody (Santa Cruz Biotechnology, Inc.). Secondary antibodies used were a HRP-labeled anti-goat antibody (Invitrogen Corp.) and a HRP-labeled anti-rabbit antibody (GE Healthcare Bio-Sciences Corp.), respectively.
A general note: In western blotting, separated proteins are transferred to a membrane and probed.

The target of the next test is T3, GST_TM4SF20_C2 (human).
T3 construct: Tested as whole E. coli lysate, denatured, in western blotting; not shown: glutathione S-transferase (GST) tag encoded by the vector pGEX-6P-1 (GE Healthcare), upstream of the BamHI site
T3 chain: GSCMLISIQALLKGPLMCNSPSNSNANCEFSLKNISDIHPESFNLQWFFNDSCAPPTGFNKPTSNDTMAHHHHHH
The test is described as above. On the procedure:
as §2

The target of test [2] is T4, human TM4SF20 (Transmembrane 4 L6 family member 20), endogenous (human, UniProt Q53R12 1-229).
T4 construct: Untagged native protein as on A549 lung adenocarcinoma cells and in clinical stomach cancer sections; also called TM4SF20 protein
T4 sequence: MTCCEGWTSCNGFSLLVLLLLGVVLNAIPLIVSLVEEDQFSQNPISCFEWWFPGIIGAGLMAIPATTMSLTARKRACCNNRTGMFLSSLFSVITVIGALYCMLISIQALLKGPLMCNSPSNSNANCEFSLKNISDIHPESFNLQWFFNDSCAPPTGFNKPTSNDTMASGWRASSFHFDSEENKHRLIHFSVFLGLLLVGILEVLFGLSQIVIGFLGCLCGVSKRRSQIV
The test is described as follows: flow cytometry, purified antibody at 10 µg/mL on A549 cells. The method, then:
as §1
Each anti-TM4SF20 antibody prepared in Example 2 was used to evaluate TM4SF20 expression on the cell membrane of a human cancer cell line by flow cytometry. A primary antibody used was the anti-TM4SF20 antibody (purified antibody) or a negative control antibody (mIgG2a, BD Biosciences Pharmingen). […] The flow cytometry was conducted in the same way as in Example 3 except for the primary antibody used at a concentration of 10 μg/mL. As a result, the expression of TM4SF20 was confirmed on the cell membrane of the A549 cells (FIG. 9)
In general terms: Flow cytometry measures light scatter and fluorescence of single cells or particles in a stream.

The target of test [3] is T5, N-terminally HA-tagged chimeric TM4SF20 version 2 expressed on CHO DG44 cells (chimeric TM4SF20 ver.2_CHO) (human TM4SF20 with the second loop …).
T5 construct: also called chimeric TM4SF20 ver.2_ntHA
T5 chain: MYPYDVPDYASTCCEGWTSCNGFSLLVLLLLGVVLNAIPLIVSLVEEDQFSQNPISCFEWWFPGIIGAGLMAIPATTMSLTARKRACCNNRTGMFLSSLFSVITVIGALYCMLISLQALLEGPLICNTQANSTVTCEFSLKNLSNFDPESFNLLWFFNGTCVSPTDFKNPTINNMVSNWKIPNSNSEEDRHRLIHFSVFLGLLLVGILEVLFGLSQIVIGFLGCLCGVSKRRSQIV
In words: flow cytometry, hybridoma culture supernatant on chimeric TM4SF20 ver.2_CHO cells. On the procedure: as §1
(§3) Next, the binding of the anti-TM4SF20 antibody (hybridoma culture supernatant) was confirmed by flow cytometry in the same way as in Example 3. As a result, all the clones bound to chimeric TM4SF20 ver.1_CHO but to neither chimeric TM4SF20 ver.2_CHO nor DG44 cells (FIG. 6).

The target of test [4] is T6, N-terminally HA-tagged chimeric TM4SF20 version 1 expressed on CHO DG44 cells (chimeric TM4SF20 ver.1_CHO) (human TM4SF20 with the first loop …, UniProt Q53R12 2-229).
T6 construct: also called chimeric TM4SF20 ver.1_ntHA
T6 chain: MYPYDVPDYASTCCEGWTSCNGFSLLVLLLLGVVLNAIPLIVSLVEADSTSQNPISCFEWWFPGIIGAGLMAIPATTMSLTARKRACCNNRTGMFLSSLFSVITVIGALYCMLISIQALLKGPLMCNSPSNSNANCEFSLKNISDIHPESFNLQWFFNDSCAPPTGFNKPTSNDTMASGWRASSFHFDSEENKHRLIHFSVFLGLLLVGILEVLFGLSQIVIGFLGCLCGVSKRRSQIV
In words: flow cytometry, hybridoma culture supernatant on chimeric TM4SF20 ver.1_CHO cells. The method, then:
as §1, §3

In test [5] the target is T7, C-terminally HA-tagged TM4SF20 expressed on CHO DG44 cells (TM4SF20_CHO) (human, UniProt Q53R12 1-229).
T7 construct: also called TM4SF20_ctHA; pCOS2_TM4SF20_ctHA product
T7 sequence: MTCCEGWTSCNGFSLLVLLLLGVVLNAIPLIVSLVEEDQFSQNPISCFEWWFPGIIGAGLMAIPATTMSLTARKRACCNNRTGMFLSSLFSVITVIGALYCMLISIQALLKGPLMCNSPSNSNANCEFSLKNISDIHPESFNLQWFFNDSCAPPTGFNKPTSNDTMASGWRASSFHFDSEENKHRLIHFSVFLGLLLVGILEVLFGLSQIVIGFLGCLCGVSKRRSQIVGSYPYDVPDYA
In words: flow cytometry, hybridoma culture supernatant at 10 µg/mL on TM4SF20_CHO cells. On the procedure: as §1

Test [6] has as its target T8, N-terminally HA-tagged TM4SF20 expressed on Ba/F3 cells (TM4SF20_Ba/F3) (human, UniProt Q53R12 2-229).
T8 construct: Four-transmembrane protein on the cell membrane; also called TM4SF20_ntHA; pMCDN2_TM4SF20_ntHA product
T8 sequence: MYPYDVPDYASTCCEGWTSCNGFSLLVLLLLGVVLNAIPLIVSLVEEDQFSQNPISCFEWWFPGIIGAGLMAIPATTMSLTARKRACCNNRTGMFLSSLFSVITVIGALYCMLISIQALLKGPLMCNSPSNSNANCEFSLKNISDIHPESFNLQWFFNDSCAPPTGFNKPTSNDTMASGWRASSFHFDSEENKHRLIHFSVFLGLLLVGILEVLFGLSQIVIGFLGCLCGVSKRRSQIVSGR
The test is described as follows: flow cytometry screening of hybridoma supernatants on TM4SF20_Ba/F3 against parental Ba/F3 cells.

B1: anti-TM4SF20 antibody B12 (antibody, mouse IgG1, V domains shown)
VH: QVQLKESGPDLVQPSQTLSLTCTVSGFSLTNYGVHWVRQPPGKGLEWVGTMGWDDKKYYNSALKSRLSISRDTSKNQVFLKLSSLQTEDTAMYYCTRNVNFDYWGQGTTLTVSS
VL: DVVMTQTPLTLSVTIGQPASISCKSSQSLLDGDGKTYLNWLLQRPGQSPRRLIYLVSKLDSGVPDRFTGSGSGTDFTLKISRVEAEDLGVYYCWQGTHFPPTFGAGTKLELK
notes: also called clone B12
Take B1: the binding result in test [1] was “no binding (tested: 10 µg/mL)”; with GST_TM4SF20_C3, “no binding (tested: 5 µg/mL)”; with GST_TM4SF20_C2 it was “no binding (tested: 5 µg/mL)”; in test [2], “binds”; in test [3], “no binding”; in test [4], “binds”. Further, the binding result in test [5] and in test [6] was “binds” each time.

B2: anti-TM4SF20 antibody B11 (antibody, mouse IgG1, V domains shown)
VH: EVQLQQSGPELVKPGASVKMSCKASGYRFTNYVMHWVKQKPGQGLEWIGYINPYNAGTKYNEKFKGKATLTSDKSSSTAYMELSSLTSEDSAVYYCARGAGWSLRFADWGQGTLVTVSA
VL: DILMTQSPSSMSVSLGDTVSITCHASQGISSNIGWLQQKPGKSFKGLIYLATNLEDGVPSRFSGSGSGADYSLTITSLESEDFAVYYCVQYSQFPRTFGGGTKLEIK
notes: also called clone B11
Turning to B2, the binding result is “no binding (tested: 10 µg/mL)” in test [1]; “no binding (tested: 5 µg/mL)” with GST_TM4SF20_C3; “no binding (tested: 5 µg/mL)” with GST_TM4SF20_C2; “binds” in test [2]; “no binding” in test [3]; “binds” in test [4]. The binding result in test [5] and in test [6] was “binds” each time.

B3: anti-TM4SF20 antibody B8 (antibody, mouse IgG2b, V domains shown)
VH: RVQLKESGPDLVQPSQTLSLTCTVSGFSLTNYGVHWIRQPPGKGLEWVGTVGWDDKKYYNSVLKSRLSINRDTSKNQVFLKLSSLQTEDTAMYYCTPYYDGSPYVMDYWGQGTSVTVSS
VL: DIVMSQSPSSLAVSAGEKVTMTCKSSQSLFDSGTRKNYLAWYQQKPGQSPKLLIYWASTRESGVPDRFTGSGSGTDFTLTISSVQAEDLAVYYCKQSYYLLTFGAGTKLELK
notes: also called clone B8
Turning to B3, the binding result in test [1] is “no binding (tested: 10 µg/mL)”; in the test with GST_TM4SF20_C3, “no binding (tested: 5 µg/mL)”; with GST_TM4SF20_C2, “no binding (tested: 5 µg/mL)”; in test [3], “no binding”.

B4: anti-TM4SF20 antibody B15 (antibody, mouse IgG2a, V domains shown)
VH: RVQLKESGPDLVQPSQTLSLTCTVSGFSLTNYGVHWIRQPPGKGLEWVGTVGWDDKKYYNSVLKSRLSINRDTSKNQVFLKLSSLQTEDTAMYYCTPYYDGSPYVMDYWGQGTSVTVSS
VL: DIVMSQSPSSLAVSAGEKVTMTCKSSQSLFDSGTRKNYLAWYQQKPGQSPKLLIYWASTRESGVPDRFTGSGSGTDFTLTISSVQAEDLAVYYCKQSYYLLTFGAGTKLELK
notes: also called clone B15
Consider B4, for which the binding result in test [1] is “no binding (tested: 10 µg/mL)”; in the test with GST_TM4SF20_C3 it was “no binding (tested: 5 µg/mL)”; with GST_TM4SF20_C2, “no binding (tested: 5 µg/mL)”; in test [3] it was “no binding”.

B5: anti-TM4SF20 antibody C7 (antibody, mouse IgG1, V domains shown)
VH: QVQLKESGPDLVQPSQTLSLTCTVSGFSLSSYGVHWVRQPPGKGLEWVGTMGWDDKKYYNSALNSRLSLSRDTSKNQVFLKLSSLQTEDTAMYYCTRDYYSDGSFAYWGQGTLVTVSA
VL: DVLMTQTPLSLPVSLGDQASISCKSSQSIVHSDGNTYLQWYLQKPGQSPKLLIYKVSNRFSGVPDRFSGSGSGTDFTLKISRVEAEDLGIYYCFQGSHVPPTFGTGTKLEIK
notes: also called clone C7
On to B5, for which the binding result in test [1] was “no binding (tested: 10 µg/mL)”; in the test with GST_TM4SF20_C3, “no binding (tested: 5 µg/mL)”; in the test with GST_TM4SF20_C2 it was “no binding (tested: 5 µg/mL)”; in test [3], “no binding”.

B6: anti-TM4SF20 antibody C9 (antibody, mouse IgG1, V domains shown)
VH: QVQLKESGPDLVQPSQTLSLTCTVSGFSLSSYGVHWVRQPPGKGLEWVGTMGWDDKKYYNSALNSRLSLSRDTSKNQVFLKLSSLQTEDTAMYYCTRDYYSDGSFAYWGQGTLVTVSA
VL: DVLMTQTPLSLPVSLGDQASISCKSSQSIVHSDGNTYLQWYLQKPGQSPKLLIYKVSNRFSGVPDRFSGSGSGTDFTLKISRVEAEDLGIYYCFQGSHVPPTFGTGTKLEIK
notes: also called clone C9
Turning to B6, the binding result is “no binding (tested: 10 µg/mL)” in test [1], “no binding (tested: 5 µg/mL)” in the test with GST_TM4SF20_C3, “no binding (tested: 5 µg/mL)” in the test with GST_TM4SF20_C2 and “no binding” in test [3].
